Measured values: patent US20080248458A1 (UNIVERSITY OF NORTH CAROLINA AT CHAPEL HILL, published 2008)

T1: FLAG®-Ring1B (mouse, UniProt Q9CQJ4 1-336)
T1 construct: also called F-Ring1B
T1 sequence: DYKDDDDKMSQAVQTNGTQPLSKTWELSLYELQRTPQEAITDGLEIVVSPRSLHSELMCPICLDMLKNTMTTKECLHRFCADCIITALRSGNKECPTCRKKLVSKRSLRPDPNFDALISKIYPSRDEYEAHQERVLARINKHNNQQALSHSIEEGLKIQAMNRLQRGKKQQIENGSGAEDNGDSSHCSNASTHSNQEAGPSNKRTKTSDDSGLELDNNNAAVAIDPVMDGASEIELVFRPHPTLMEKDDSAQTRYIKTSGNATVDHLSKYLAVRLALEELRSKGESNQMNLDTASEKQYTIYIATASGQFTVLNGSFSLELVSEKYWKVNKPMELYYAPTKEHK

T2: Ring1A (mouse, UniProt O35730 1-406)
T2 construct: mature; Untagged protein: 35S-labelled in vitro translation product in the GST pull-down; baculovirus-expressed in Sf9 cells in the co-purifications; also called Ring1/Ring1A
T2 sequence (looked up): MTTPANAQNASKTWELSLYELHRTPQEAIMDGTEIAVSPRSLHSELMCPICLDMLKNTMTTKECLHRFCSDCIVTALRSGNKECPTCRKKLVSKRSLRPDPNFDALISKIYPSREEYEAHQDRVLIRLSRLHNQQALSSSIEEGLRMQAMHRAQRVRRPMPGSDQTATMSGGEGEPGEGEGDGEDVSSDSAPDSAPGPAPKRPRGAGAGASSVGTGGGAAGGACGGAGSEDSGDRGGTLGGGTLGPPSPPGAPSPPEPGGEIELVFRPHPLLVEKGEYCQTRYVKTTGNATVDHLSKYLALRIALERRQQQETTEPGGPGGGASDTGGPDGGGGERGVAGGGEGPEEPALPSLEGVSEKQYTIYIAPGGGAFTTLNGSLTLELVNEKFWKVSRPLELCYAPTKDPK

T3: GST-Ring1A (mouse, UniProt O35730 1-406)
T3 construct: mature; Full-length cDNA cloned into pGEX-KG; also called GST fusion of Ring1A; not shown: glutathione S-transferase (GST) encoded by the pGEX-KG vector
T3 sequence (looked up): T2 sequence (looked up)

T4: Bmi-1, P25916
T4 chain: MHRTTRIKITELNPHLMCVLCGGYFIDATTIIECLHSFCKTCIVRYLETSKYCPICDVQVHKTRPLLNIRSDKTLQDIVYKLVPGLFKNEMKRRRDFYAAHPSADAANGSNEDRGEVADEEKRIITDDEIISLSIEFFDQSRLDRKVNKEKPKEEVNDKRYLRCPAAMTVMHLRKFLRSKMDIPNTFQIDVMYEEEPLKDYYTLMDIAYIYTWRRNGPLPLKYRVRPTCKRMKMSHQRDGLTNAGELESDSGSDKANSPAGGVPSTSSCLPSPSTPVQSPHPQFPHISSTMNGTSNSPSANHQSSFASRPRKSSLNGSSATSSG

B1: Bmi-1 (other, mouse, UniProt P25916 1-324, looked up)
chain: T4 chain
notes: mature; Untagged protein: 35S-labelled in vitro translation product in the GST pull-down; baculovirus-expressed in Sf9 cells in the two-component complex with FLAG-Ring1B
B2: GST-Ring1B (other, mouse, UniProt Q9CQJ4 2-336, looked up)
chain: SQAVQTNGTQPLSKTWELSLYELQRTPQEAITDGLEIVVSPRSLHSELMCPICLDMLKNTMTTKECLHRFCADCIITALRSGNKECPTCRKKLVSKRSLRPDPNFDALISKIYPSRDEYEAHQERVLARINKHNNQQALSHSIEEGLKIQAMNRLQRGKKQQIENGSGAEDNGDSSHCSNASTHSNQEAGPSNKRTKTSDDSGLELDNNNAAVAIDPVMDGASEIELVFRPHPTLMEKDDSAQTRYIKTSGNATVDHLSKYLAVRLALEELRSKGESNQMNLDTASEKQYTIYIATASGQFTVLNGSFSLELVSEKYWKVNKPMELYYAPTKEHK
notes: mature; Full-length cDNA cloned into pGEX-KG; also called GST fusion of Ring1B; not shown: glutathione S-transferase (GST) encoded by the pGEX-KG vector
B3: Ring1B (enzyme, mouse, UniProt Q9CQJ4 2-336, looked up)
chain: B2 chain
notes: mature; Untagged protein: 35S-labelled in vitro translation product (pCITE, full-length cDNA) in the GST pull-down; baculovirus-expressed in Sf9 cells in the co-purifications; also called Ring2; Ring2/Ring1B
B4: FLAG®-Ring1B (protein)
chain: T1 sequence

Assays:
Ring1B = biological target: B3; test: purification of two-component complexes from infected insect cells (FIG. 13D)
FLAG®-Ring1B = biological target: T1, FLAG®-Ring1B; test: co-expression in Sf9 cells, anti-FLAG purification, silver stain (FIG. 7A)
Experimental: To purify the recombinant PRC1 complex and sub-complexes, different baculoviruses were used to co-infect SF9 cells. After two days of infection, cells were collected and resuspended in F lysis buffer [20 mM Tris (pH 7.9), 500 mM NaCl, 4 mM MgCl₂, 0.4 mM EDTA, 2 mM DTT, 20% glycerol, 0.1% NP40] with proteinase inhibitors. Then cells were homogenized with pestle A three times (10 strokes each) in a period of 30 minutes. The supernatant was recovered by centrifuging at 11,000 rpm for 10 minutes. The supernatant was adjusted to 300 mM NaCl by adding Dilution buffer [20 mM Tris (pH 7.9), 10% glycerol], then incubated with the M2 α-FLAG® agarose (Sigma, St. Louis, Mo.) equilibrated with F lysis buffer for 4 hours at 4° C. After washing with F washing buffer [20 mM Tris (pH 7.9), 150 mM NaCl, 2 mM MgCl₂, 0.2 mM EDTA, 1 mM DTT, 15% glycerol, 0.01% NP40] until no protein came out, bound proteins were eluted with 0.2 mg/ml FLAG® peptide ([…]; SEQ ID NO:5) in F washing buffer for 20 minutes each time at room temperature. The eluted complexes were further purified through a gel-filtration SEPHADEX 200 or SUPEROSE 6 column. […]

Ring1A = biological target: T2, Ring1A; test: GST pull-down with 35S-labelled in vitro translated protein (FIG. 5A)
Experimental: (§1) Full-length cDNAs for Ring1B, Ring1A, Bmi-1, Pc3 and Ph2 were inserted into pCITE vector for in vitro translation using the rabbit reticulocyte lysate kit according to the manufacturer's instructions (PROMEGA, Madison, Wis.). Full-length cDNAs for Ring1B, Ring1A, Bmi-1, Pc3 and Ph2 were also cloned into pGEX-KG vector for the production of GST-fusion proteins. About 3 μg of GST or GST fusion proteins were bound to 10 μL of glutathione-immobilized agarose beads (Sigma) and incubated with in vitro-translated products in 500 μL buffer A (50 mM Tris-HCl [pH 7.9], 0.5 mM EDTA, 1 mM dithiothreitol, 0.2 mM phenylmethylsulfonyl fluoride, 10% glycerol) containing 150 mM KCl and 0.05% NP-40. After incubation at 4° C. for 2 hours, the beads were washed three times with buffer A containing 300 mM KCl and 0.05% NP-40 and then washed once in buffer A containing 50 mM KCl before being subjected to SDS-PAGE and autoradiogram.
(§2) To address the effect of other subunits on Ring1B enzymatic activity, an attempt was made to reconstitute Ring1B-containing subcomplexes. Toward this end, the precise spatial relationship among components of the complex were first defined using GST full-down assays. Individual components were expressed as GST fusion proteins and equal amounts of the fusion proteins, as well as GST alone (FIG. 5A, last panel), were immobilized onto beads and incubated with ³⁵S-labeled proteins. […]

GST-Ring1A = biological target: T3, GST-Ring1A; test: as above
Experimental: as §1, §2

Bmi-1, P25916 = biological target: T4, Bmi-1, P25916

Binder: B1
- binding result (Ring1B): binds
- binding result (FLAG®-Ring1B): binds

Binder: B2
- binding result (Ring1A): no binding

Binder: B3
- binding result (GST-Ring1A): no binding

Binder: B4
- E3 ligase activity (ubiquitylation of nucleosomal substrates) (Bmi-1, P25916): stimulated its E3 ligase activity
